According to US20240352121A1, “LAIR-1 AGONISTIC ANTIBODIES AND METHODS OF USE THEREOF” (NEXTCURE, INC., priority 2023, published 2024):

What was measured:
SHP-1 = SHP-1 phosphorylation in primary patient AML blasts (Western blot); assay type: cell-based, human
Procedure: FIGS. 4A-4O show the collagen matrix is vital to LAIR-1 induced AML cell death. (FIGS. 4A-C). Flow cytometry quantification of primary live, dead, or apoptotic total blood leukocytes after ex vivo treatment with 10 μg/mL IgG isotype control (gray) or LAIR-1 mAb (red) in the presence (FIG. 4A) or absence (FIG. 4B) of exogenous collagen, or (FIG. 4C), CD451^Lo SSC^Lo blast cells in the presence of isotype control or LAIR-1 mAb. N=3 technical replicates. […] Each dot represents an individual donor. Red shading highlights surface expression >20000 arbitrary units. Blue shading highlights expression <20000 units. Line represents simple linear regression. […] N=4-7 donors. […] Mean pixel density from Western blotting normalized to isotype control condition and graphed relative to total SHP-1. N=3 technical replicates. […] FIGS. 4M and 4N) 4E-BP1 expression as measured by Lumit assay (FIG. 4M) or cleaved caspase-7 as measured by Western blot (FIG. 4N) of cells treated as shown in FIGS. 4I-4K. […] P values calculated by Student's t test. […]
For assessment of signaling in healthy cells, human monocytes were isolated from PBMCs from two donors using a StemCell monocyte isolation kit (StemCell, Vancouver, BC). […] Data were quantified using FIJI (NIH, MD).

SoC-resistant AML = assay: PDX model with BM from a VEN/AZA-resistant patient; parameters: species or system NSG-SGM3 mice; settings: mouse, in vivo
Procedure: (§1) Ex vivo killing of VEN/AZA-treated AML patient leukemic cells (FIG. 7A) or T cells or NK cells (FIG. 7B). Values normalized to vehicle control. Lines represent linear regression of NC525 concentration versus normalized cell killing. […] FIGS. 7D and 7E show in vivo leukemic growth as measured by whole-body luminescence of MV4-11-luciferase cells (FIG. 7D) or survival (FIG. 7E) of CDX mice treated with 10 mg/kg isotype control (gray) or NC525 (red) or 100 mg/kg VEN (pink) or 0.5 mg/kg AZA (blue) or combination therapy (green or yellow, respectively). BLoD, below limit of detection. n=9 mice per group. P values determined by 2-way ANOVA or log-rank (Mantel-Cox) test, respectively. FIGS. 7F and 7G show leukemic growth in the blood (FIG. 7F) and in the spleen and BM (FIG. 7G) at week 8 after transplant of AML PDX mice treated with vehicle (gray), VEN/AZA (blue), NC525 (red), or VEN/AZA plus NC525 (green). n=5-10 mice per group. AML cells in spleen and BM compared from 4-5 mice per group. Data are shown as the mean±SEM. P values determined by 2-way ANOVA or 1-way ANOVA with multiple comparisons.
Newborn (3-5 day from birth) NSG-SGM3 pups were sub-lethally (200 cGy) irradiated. […] Leukemia progression in recipient mice was measured by flow cytometry by quantifying the percent of human CD33^+ human CD45^+ cells in peripheral blood at weeks 4, 6, and 10 weeks post-transplant.

SoC-resistant AML cells = assay: Ex vivo killing of VEN/AZA-treated AML patient leukemic cells; assay type: cell-based, human; settings: 5 μg/mL of antibody; fresh BM leukemic cells from a patient treated with VEN/AZA
Procedure: as §1

B1: LAIR-1 mAb: humanized agonist anti-LAIR-1 mAb, IgG1 backbone; h11B3 VL-2 (SEQ ID NO: 16), h11B3 VH-3 (SEQ ID NO: 27) (antibody, V domains shown)
VH: EVQLVESGGGLVQPGGSLKLSCAASGFTFNTNAMYWVRQAPGKGLEWVGRIRSKSSNYATYYAASVKGRFTISRDDSKNTLYLQMNSLKTEDTAVYYCVRGGSGFFAYWGQGTLVTVSS
VL: DIQMTQSPSSLSASLGDRVTITCKASEDIYIRLAWYQQKPGKAPRLLISTATSLETGVPSRFSGSGSGTDYTFTISSLQPEDIATYYCQQYWSTPYTFGGGTRLEIK
modifications: IgG1 constant regions; Synthetic: h11B3 VH-3; Synthetic: h11B3 VL-2
With B1 the “increase of SHP-1 phosphorylation relative to control” value (SHP-1; LAIR-1 mAb alone) was 25%, the “increase of SHP-1 phosphorylation relative to control” value (SHP-1; cotreatment with LAIR-1 mAb and collagen) was 50% and the “AML disease (circulating blast cell burden, AML cells in spleen and BM)” value (SoC-resistant AML) was “significantly reduced”. For the same molecule, the “killing of SoC-resistant AML cells” value (SoC-resistant AML cells) was “up to 70%”.
